Source: patent US11274126B2, “pH-sensitive cyclic peptides” (University of Rhode Island Board of Trustees, priority 2016, dated 2022)

What was measured:
HeLa cells [1] = type: cell-based, Human; conditions: up to 4 μM, 3 h at pH 7.4 or 6.0, viability at 48 h
Protocol: HeLa cells were loaded in the wells of 96-well plates (5,000 cells per well) and incubated overnight. Growth medium was replaced with the medium without FBS pH 6.0 or pH 7.4 containing increasing amounts of peptide-amanitin construct (0.5, 1, 2, and 4 μM). The construct was removed after 3 h. After 48 h of incubation in standard growth medium, a colorimetric reagent (CellTiter 96 AQueous One Solution Assay, Promega) was added for 1 h followed by measuring absorbance at 490 nm to assess cell viability. All samples were prepared in triplicate.

[2] = Steady-state tryptophan fluorescence of peptides in buffer and with POPC liposomes; type: physicochemical; conditions: for S, normalized area under the spectra, Pep-PC, pH3: POPC liposomes pH 3; for S, normalized area under the spectra, Pep-PC, pH3 / S, normalized area under the spectra, Pep-PC, pH8: normalized to peptide at pH 8 without POPC; for S, normalized area under the spectra, Pep-PC, pH8: POPC liposomes pH 8; for λmax, Pep-PC, pH3: in the presence of POPC liposomes at pH 3; for λmax, Pep-PC, pH3 / λmax, Pep-PC, pH8 / λmax, maximum position of the fluorescence spectrum, Pep, pH8: excitation 280 nm; for λmax, Pep-PC, pH8: in the presence of POPC liposomes at pH 8; for λmax, maximum position of the fluorescence spectrum, Pep, pH8: peptide in phosphate buffer pH 8, no liposomes
Protocol: Liposomes such as Large Unilamellar Vesicles (LUVs) were prepared by extrusion. POPC, 1-palmitoyl-2-oleoyl-sn-glycero-3-phosphocholine (Avanti Polar Lipids), or a mixture of POPC with 0.5% of 18:1 NBD-PE, 1,2-dioleoyl-sn-glycero-3-phosphoethanolamine-N-7-nitro-2-1,3-benzoxadiazol-4-yl ammonium salt (Avanti Polar Lipids) were dissolved in chloroform, desolvated on a rotary evaporator, and dried under high vacuum for several hours. The phospholipid film was then rehydrated in 10 mM phosphate buffer pH 8.0, vortexed until the lipid bilayer was completely dissolved, and repeatedly (15-21 times) extruded through the membranes with 50 nm pore sizes to obtain LUVs.
Freshly prepared peptides and POPC vesicles were mixed to have 5 μM of a peptide and 1.25 mM of lipids in the final solution. Steady-state fluorescence measurements were carried out on a PC1 spectrofluorometer (ISS, Inc.) under temperature control at 25° C. Tryptophan fluorescence was excited at 280 nm (there is no Phe or Tyr in the peptides) and recorded with the excitation and emission slits set at 1 nm. The polarizers in the excitation and emission paths were set at the “magic” angle (54.7o from the vertical orientation) and vertically (0°), respectively. Steady state CD measurements were carried out in MOS 450 spectropolarimeter (Bio-Logic, Inc.) with the same concentrations of peptide and lipids as it were used in fluorescence measurements.

[3] = Dual quenching (acrylamide / 10-DN); type: physicochemical; conditions: POPC liposomes; for percentage of fluorescence quenching, Pep-PC + 10-DN pH3 / percentage of fluorescence quenching, Pep-PC + AC pH3: pH 3; for percentage of fluorescence quenching, Pep-PC + 10-DN pH8 / percentage of fluorescence quenching, Pep-PC + AC pH8: pH 8; for percentage of fluorescence quenching, Pep-PC + AC pH3 / percentage of fluorescence quenching, Pep-PC + AC pH8: acrylamide
Protocol: POPC liposomes without and with 10% of the lipids replaced by 10-doxylnonadecane (10-DN) (Avanti Polar Lipids) were prepared in 10 mM citrate-phosphate buffer pH 8.0. Peptides and POPC liposomes were mixed to generate final concentrations of 7 μM peptide and 2.1 mM POPC without and with 10-DN. […] To the samples of POPC liposomes containing no 10-DN, acrylamide (Sigma-Aldrich) was added to have a final concentration of 235 mM in solution. Concentration of peptides in all samples was kept constant. To observe quenching of tryptophan fluorescence by 10-DN or acrylamide, the tryptophan fluorescence was recorded as described above. The appropriate POPC blanks were measured and subtracted from the measured spectra before analysis. The percentage of quenching was calculated.
To establish localization of the peptides within a lipid bilayer of the membrane, a dual quenching assay (Caputo G A & London E (2003) Biochemistry 42(11):3265-3274) was used (FIG. 6 and Table 8). Effective quenching of fluorescence by acrylamide would occur only for tryptophan residues exposed to polar parts of outer or inner leaflets of the bilayer. At the same time, tryptophan residues located in the middle of a membrane would be effectively quenched by 10-DN. The result of the dual quenching assay allows the determination of whether tryptophan residues are located in the middle of a membrane or close to the polar headgroups of the bilayer. […] Therefore, FRET assays were also performed (McIntyre J C & Sleight R G (1991) Biochemistry 30(51):11819-11827; Clausell et al. (2006) J Phys Chem B 110(9):4465-4471) (FIG. 7). First, POPC liposomes symmetrically-labeled with NBD dye were prepared. Then, membrane-impermeable dithionite was used to modify chemically and quench the fluorescence of NBD at the outer leaflet of the bilayer followed by removal of dithionite by gel filtration. As a result, asymmetrically-labeled liposomes with NBD only at the inner leaflet were obtained. The c[E4W5C] […] All other peptides are located at the outer leaflet of the bilayer at pH 8. Among c[(WE)4WC] (SEQ ID NO: 2), c[(WE)5WC] (SEQ ID NO: 3), and c[(WE)3WC] (SEQ ID NO: 1) peptides, the peptide with smallest cycle, c[(WE)3WC]

HeLa cells [4] = assay: Fluorescent microscopy with Trypan Blue quenching; type: cell-based, Human; conditions: 5 μM, 30 min at pH 6.2 versus 7.4
Protocol: HeLa cells (8,000 cells per dish) were seeded in the center of a 35-mm dish with a 10-mm glass-bottom window coated with collagen (MatTek Corp). Next day cells were incubated with 5 μM of FITC-labeled c[E4W5C] (SEQ ID NO: 5) peptide for 30 min in DMEM medium without FBS at pH 7.4 or 6.2. Cells were washed 5 times at pH 7.4 and 0.4% Trypan Blue was added for 5 min ( 1/10 of the total volume). Fluorescent images were acquired with a Retiga CCD camera (Qimaging) mounted to an inverted Olympus IX71 microscope (Olympus America, Inc.).

4T1 breast tumors = assay: Ex vivo fluorescence imaging of tumor and organs after IV Alexa546-peptides; type: in vivo, mice; conditions: after IV administration
Protocol: 4T1 breast tumors were established by subcutaneous injection of 4T1 cells (8×10^5 cells/0.1 mL/flank) in the right flank of adult female BALB/c mice (about 19-22 g weight) obtained from Harlan Laboratories. When tumors reached about 6 mm in diameter single tail vein injections of 100 μl of 40 μM Alexa546-peptides were performed. […] At 4 h post-injection euthanization and necropsy was performed followed by ex vivo imaging of tumor, kidneys, liver, lungs and muscle. Mean fluorescence intensity of tumor and organs was calculated using Kodak software.

HeLa cells [5] = conditions: at the concentrations used, treatment of 2-4 h; previous report; cited from earlier work

Compound | S, normalized area under the spectra, Pep-PC, pH3 [2] | S, normalized area under the spectra, Pep-PC, pH8 [2] | λmax, Pep-PC, pH3 [2] | λmax, Pep-PC, pH8 [2] | λmax, maximum position of the fluorescence spectrum, Pep, pH8 [2] | percentage of fluorescence quenching, Pep-PC + 10-DN pH3 [3] | percentage of fluorescence quenching, Pep-PC + 10-DN pH8 [3] | percentage of fluorescence quenching, Pep-PC + AC pH3 [3] | also measured
c[E4W5C]-GMBS-amanitin (cyclo(EEEEWWWWWC); also: GMBS-linked amanitin conjugate) | – | – | – | – | – | – | – | – | cell death / cytotoxic effect of peptide-amanitin construct (HeLa cells [1]): reduced significantly at both pHs
c[(WE)3WC] (WEWEWEWC; cyclic) | 1.7 ± 0.3 | 0.9 ± 0.1 | 341.7 ± 0.2 nm | 349.1 ± 0.7 nm | 351.0 ± 0.2 nm | 47% | 6% | 63% | percentage of fluorescence quenching, Pep-PC + AC pH8 [3]: 83%
FITC-labeled peptide: c[E4W5C] peptide conjugated with Fluorescein-5-maleimide (cyclo(EEEEWWWWWC); also: conjugated with fluorescein-5-maleimide, site not given here) | – | – | – | – | – | – | – | – | fluorescent signal of cells after Trypan Blue quenching, low pH compared to normal pH (HeLa cells [4]): higher level of the fluorescent signal
c[(WE)5WC] (WEWEWEWEWEWC; cyclic) | 2.1 ± 0.3 | 1.5 ± 0.3 | 341.2 ± 0.4 nm | 346.7 ± 1.2 nm | 350.3 ± 0.2 nm | 40% | 1.3% | 68% | –
N=C(N)NCCC[C@@H]1NC(=O)[C@H](CS)NC(=O)[C@H](Cc2c[nH]c3ccccc23)NC(=O)[C@H](Cc2c[nH]c3ccccc23)NC(=O)[C@H](Cc2c[nH]c3ccccc23)NC(=O)[C@H](Cc2c[nH]c3ccccc23)NC(=O)[C@H](Cc2c[nH]c3ccccc23)NC(=O)[C@H](CCCNC(=N)N)NC(=O)[C@H](CCCNC(=N)N)NC(=O)[C@H](CCCNC(=N)N)NC1=O [c[R4W5C]] | – | – | – | – | – | – | – | – | accumulation in tumor and other organs (4T1 breast tumors): very minimal
l(CW(EW)4) (CWEWEWEWEW) | 1.6 ± 0.4 | 2.3 ± 0.4 | 339.8 ± 0.6 nm | 346.6 ± 0.7 nm | 353.0 ± 0.7 nm | 31% | 20% | 56% | percentage of fluorescence quenching, Pep-PC + AC pH8 [3]: 81%
CC[C@H](C)[C@@H]1NC(=O)CNC(=O)[C@@H]2Cc3c([nH]c4cc(O)ccc34)[S+]([O-])C[C@@H](NC(=O)CNC1=O)C(=O)N[C@@H](CC(N)=O)C(=O)N1C[C@H](O)C[C@H]1C(=O)N[C@@H]([C@@H](C)[C@@H](O)CO)C(=O)N2 (stereo partly drawn) [amanitin, alpha-amanitin] | – | – | – | – | – | – | – | – | cell death by amanitin alone (HeLa cells [5]): does not induce cell death
